Molecular target: T1, IL-10R1 S138G homozygous mutant on primary B-CLL cells (human, UniProt Q13651 22-578)
T1 construct: Endogenous receptor on purified B-CLL cells of patients homozygous (GG) for the mutation; also called S159G of the IL-10R1 precursor; GG homozygous mutant
T1 sequence: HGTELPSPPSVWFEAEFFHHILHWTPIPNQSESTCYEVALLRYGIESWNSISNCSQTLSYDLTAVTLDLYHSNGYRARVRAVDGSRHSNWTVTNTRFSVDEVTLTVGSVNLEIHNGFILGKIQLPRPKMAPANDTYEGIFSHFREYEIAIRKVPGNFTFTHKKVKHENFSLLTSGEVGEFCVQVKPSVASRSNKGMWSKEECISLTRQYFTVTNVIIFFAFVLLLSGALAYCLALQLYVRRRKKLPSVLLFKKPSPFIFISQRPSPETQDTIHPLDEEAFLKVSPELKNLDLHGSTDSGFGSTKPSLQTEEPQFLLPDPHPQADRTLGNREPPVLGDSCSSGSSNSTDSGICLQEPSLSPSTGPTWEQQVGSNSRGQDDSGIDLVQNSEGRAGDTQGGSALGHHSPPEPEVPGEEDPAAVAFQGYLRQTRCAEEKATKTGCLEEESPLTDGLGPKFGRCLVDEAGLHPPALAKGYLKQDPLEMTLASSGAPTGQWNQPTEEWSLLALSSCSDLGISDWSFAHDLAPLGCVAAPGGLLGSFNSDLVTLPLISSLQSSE
Test: flow cytometry, biotinylated IL-10 plus avidin-FITC on primary B-CLL cells; weaker than on wild-type cells
Procedure: IL-10 binding with B-CLL cells was determined using Flurokine® Biotinylated Human Interleukin 10 Kit (R&D Systems) per the protocol. 25 μl (1×10⁵) purified B-CLL cells were incubated with 10 μl biotinylated negative control reagents or biotinylated IL-10 for 1-hour at 2-8° C., then incubated with 10 μl of avidin-FITC for a further 30 minutes at 2-8° C. in the dark. Wash the cells twice with 2 ml of 1×RDF buffer 2 times. Add 200 μl 1×RDF buffer into each tube and do flow cytometry analysis.

binding result: binds
B1: Biotinylated Human Interleukin 10 (Flurokine kit, R&D Systems) (ligand, UniProt P22301 19-178, looked up)
chain: SPGQGTQSENSCTHFPGNLPNMLRDLRDAFSRVKTFFQMKDQLDNLLLKESLLEDFKGYLGCQALSEMIQFYLEEVMPQAENQDPDIKAHVNSLGENLKTLRLRLRRCHRFLPCENKSKAVEQVKNAFNKLQEKGIYKAMSEFDIFINYIEAYMTMKIRN
modifications: biotinylated (sites not given) in the binding assay; unlabelled rh-IL-10 in the culture assays
notes: The STAT assays used rh-IL-10 (R&D Systems) at 10 ng/ml; also called IL-10; rh-IL-10
